Results published in US20200010836A1, “Regulation of Gene Expression by Aptamer-Mediated Accessibility of Polyadenylation Signals” (MEIRAGTX, UK II Limited, priority 2017, published 2020).

Test system: luciferase expression
Assay: Firefly luciferase assay of HEK 293 cells transfected with riboswitch constructs, treated with guanosine or guanine
Assay type: cell-based
Conditions: for induction fold of luciferase activity (presence / absence of guanine): 500 μM guanine vs NaOH solvent control; for basal level luciferase expression in the absence of guanine (comparison in words): no guanine, compared with control or parent construct; for fold induction by guanine compared with other constructs: 500 μM guanine
Experimental: Transfection and aptamer ligand treatment: 3.5×10^4 HEK 293 cells were plated in a 96-well flat bottom plate the day before transfection. Plasmid DNA (500 ng) was added to a tube or a 96-well U-bottom plate. Separately, TransIT-293 reagent (Minis; 1.4 μl) was added to 50 μl opti-mem I media (Life Technologies), and allowed to sit for 5 minutes at room temperature (“RT”). Then, 50 μl of this diluted transfection reagent was added to the DNA, mixed, and incubated at RT for 20 min. Finally, 7 μl of this solution was added to a well of cells in a 96-well plate. Four hours after transfection, the media was aspirated, and new media was added with (i) DMSO (0.5%) or 500 μM guanosine; or (ii) NaOH (2 mM) as solvent control or 500 μM guanine. The induction fold was expressed as the quotient of luciferase activity obtained in the presence of aptamer ligand divided by the value obtained in the absence of the aptamer ligand.
Firefly luciferase assay of cultured cells: Twenty-four hours after media change, plates were removed from the incubator, and equilibrated to RT for several minutes on a lab bench, then aspirated. Glo-lysis buffer (Promega, […]) was added, and the plates allowed to remain at RT for at least 5 minutes. Then, the well contents were mixed by 50 μL trituration, and 20 μL of each sample was mixed with 20 μL of bright-glo reagent (Promega) that had been diluted to 10% in glo-lysis buffer. 96 wells were spaced on an opaque white 384-well plate. Following a 5-min incubation at RT, luminescence was measured using Tecan machine with 500 mSec read time. The luciferase activity was expressed as mean relative light unit (RLU)±S.D.

B1: SPA_DSE_Gua: SEQ ID NO: 11; xpt-guanine aptamer linked to 3′ end of stem-loop embedding DSE of synthetic polyA (nucleic acid)
DNA: AAGGCCAAGAAGGGCGGAAAGATCGCCGTGTAAGGATCCAAGCTTATCGATACCGTCGACCTCGAGGGCCCAGATCTGCGGCCGCAATAAAAGATCTTTATTTTCATTAGATCTGTGTGTTGGTTTTTTGTGTGTCGAAAGACACACAATATAATCGCGTGGATATGGCACGCAAGTTTCTACCGGGCACCGTAAATGTCCGACTATTGTGTGGAAATAATTCTTACT
induction fold of luciferase activity (presence / absence of guanine): 1.9 fold

B2: ATA_DSE_Gua: SEQ ID NO: 16; pFLuc construct containing both ATA_Gua_1 and DSE_Gua_1 switches (nucleic acid)
DNA: AAGGCCAAGAAGGGCGGAAAGATCGCCGTGTAAGCCATACCACATTTGTAGAGGTTTTACTTGCTTTAAAAAACCTCCCACACCTCCCCCTGAACCTGAAACATAAAATGAATGCAATTGTTGTTGTTAACTTGTTTATTGCAGCTTATAATGGTTACAAATAAAGCAATAGCATCACAAATTTCTAAAGGTATAATCGCGTGGATATGGCACGCAAGTTTCTACCGGGCACCGTAAATGTCCGACTACCTTTATTTCGAAAGAAATAAAGCATTTTTTTCACTGCATTCTAGTTGTGGTTTGTCCGAAAGGACAAACCATAATCGCGTGGATATGGCACGCAAGTTTCTACCGGGCACCGTAAATGTCCGACTGGTTTGTAAACTCATCAATGTATCTTAACGCGT
induction fold of luciferase activity (presence / absence of guanine): approximately 2.1 fold | basal level luciferase expression, % of the pFLuc control vector (absence of guanine treatment): 20% | basal level luciferase expression in the absence of guanine (comparison in words): further decreases the basal level

B3: Stbl_ATA_Gua_1: SEQ ID NO: 14; ATA_Gua_1 with GAAA loop replaced by more stable TTCG loop (nucleic acid)
DNA: AAGGCCAAGAAGGGCGGAAAGATCGCCGTGTAAGCCATACCACATTTGTAGAGGTTTTACTTGCTTTAAAAAACCTCCCACACCTCCCCCTGAACCTGAAACATAAAATGAATGCAATTGTTGTTGTTAACTTGTTTATTGCAGCTTATAATGGTTACAAATAAAGCAATAGCATCACAAATTTCTAAAGGTATAATCGCGTGGATATGGCACGCAAGTTTCTACCGGGCACCGTAAATGTCCGACTACCTTTATTTCTTCGGAAATAAAGCATTTTTTTCACTGCATTCTAGTTGTGGTTTGTCCAAACTCATCAATGTATCTTAACGCGT
fold induction by guanine compared with other constructs: higher induction fold | basal level luciferase expression in the absence of guanine (comparison in words): lower luciferase activity

B4: gaat_ATA_Gua_1: SEQ ID NO: 15; ATA_Gua_1 variant containing GAAT loop (nucleic acid)
DNA: AAGGCCAAGAAGGGCGGAAAGATCGCCGTGTAAGCCATACCACATTTGTAGAGGTTTTACTTGCTTTAAAAAACCTCCCACACCTCCCCCTGAACCTGAAACATAAAATGAATGCAATTGTTGTTGTTAACTTGTTTATTGCAGCTTATAATGGTTACAAATAAAGCAATAGCATCACAAATTTCTAAAGGTATAATCGCGTGGATATGGCACGCAAGTTTCTACCGGGCACCGTAAATGTCCGACTACCTTTATTTCGAATGAAATAAAGCATTTTTTTCACTGCATTCTAGTTGTGGTTTGTCCAAACTCATCAATGTATCTTAACGCGT
fold induction by guanine compared with other constructs: slightly lower fold induction | basal level luciferase expression in the absence of guanine (comparison in words): higher basal level luciferase
